The values below come from PMC10033635.

The target of this experiment is African cichlid nackednavirus capsid protein (African cichlid nackednavirus (ACNDV)). Put plainly: cryo-EM structure; capsids assembled in E. coli and purified; TRIS buffer (50 mM TRIS, 50 mM NaCl, 5 mM EDTA, 5 mM DTT), pH 7.5; icosahedral symmetry imposed.

“African cichlid nackednavirus capsid protein (natural protein)” returned a stoichiometry N (protein dimers) of 90.
